Data on one substance can be found in PMC6380570.

Assay [1] concerns the target S100A1 protein (1-93 amino acids).
The target is the same in assay [2]. Kind of assay: other fluorescence titration; tryptophan fluorescence of S100A1 (3.50 uM; excitation 295 nm, emission 344 nm); S100A4 added from 0 to 10.50 uM in steps of about 0.70 uM; 0.1 mM EDTA, 8 mM NaCl, 0.34 mM NaN3, 6 mM CaCl2, 16 mM Tris, pH 6.0; linear (double-reciprocal) fit.

“S100A4 (Mts1) protein (from UniProt P26447 4-101) (natural protein)”: the WST-1 proliferation assay of SW480 cells (which contain RAGE) treated with the S100A4-S100A1 complex (100 nM), against S100A1 alone; pair said to be blocked: S100A1 and the RAGE V domain in assay [1] is 1.38 fold. Besides, the Kd in assay [2] was determined as 6.2 µM.
